Assay: label from the status in PepcDB records

Row | Sequence | protein production
1 | MKIDKLFIKSIILTFLSMNLLFMILIMLGDLFVNLLNYLEKNIGLKDILYIYYLYLPKAFSDGVALSFLFAISNLIGNLSMRNEIIGLFSCGVPLTRILKPIILISIFISVVLFFFDNYLVIDTIARRDVLIKNSIGDSRSGDKTIIIRDFAREIYNIKSYDIDENTFANLMIIIKDNKDEFQTRYDINKAEWKDNKWRLYGIREFVKVGKKIKENAYDVLDGTGIIKLAPDYIRTVMLSSKALNFTKLINWISFLKAERLNYSDAFFDLLNRIFFSFRLILLSFTVGFIALALKKNIFILSLLNSIAFAVVYVISIVIFNFLADLGYLHIYIASSFTTIFFLIINFFVYRIVRK | failed
2 | MGSEDHGAQNPSCKIMTFRPTMEEFKDFNKYVAYIESQGAHRAGLAKIIPPKEWKPRQTYDDIDDVVIPAPIQQVVTGQSGLFTQYNIQKKAMTVGEYRRLANSEKYCTPRHQDFDDLERKYWKNLTFVSPIYGADISGSLYDDDVAQWNIGSLRTILDMVERECGTIIEGVNTPYLYFGMWKTTFAWHTEDMDLYSINYLHFGEPKSWYAIPPEHGKRLERLAIGFFPGSSQGCDAFLRHKMTLISPIILKKYGIPFSRITQEAGEFMITFPYGYHAGFNHGFNCAESTNFATLRWIDYGKVATQCTCRKDMVKISMDVFVRILQPERYELWKQGKDLTVLDHTRPTALTSPELSSWSASRASLKAKLLRRSHRKRSQPKKPKPEDPKFPGEGTAGAALLEEAGGSVKEEAGPEVDPEEEEEEPQPLPHGREAEGAEEDGRGKLRPTKAKSERKKKSFGLLPPQLPPPPAHFPSEEALWLPSPLEPPVLGPGPAAMEESPLPAPLNVVPPEVPSEELEAKPRPIIPMLYVVPRPGKAAFNQEHVSCQQAFEHFAQKGPTWKEPVSPMELTGPEDGAASSGAGRMETKARAGEGQAPSTFSKLKMEIKKSRRHPLGRPPTRSPLSVVKQEASSDEEASPFSGEEDVSDPDALRPLLSLQWKNRAASFQAERKFNAAAARTEPYCAICTLFYPYCQALQTEKEAPIASLGEGCPATLPSKSRQKTRPLIPEMCFTSGGENTEPLPANSYIGDDGTSPLIACGKCCLQVHASCYGIRPELVNEGWTCSRCAAHAWTAECCLCNLRGGALQMTTDRRWIHVICAIAVPEARFLNVIERHPVDISAIPEQRWKLKCVYCRKRMKKVSGACIQCSYEHCSTSFHVTCAHAAGVLMEPDDWPYVVSITCLKHKSGGHAVQLLRAVSLGQVVITKNRNGLYYRCRVIGAASQTCYEVNFDDGSYSDNLYPESITSRDCVQLGPPSEGELVELRWTDGNLYKAKFISSVTSHIYQVEFEDGSQLTVKRGDIFTLEEELPKRVRSRLSLSTGAPQEPAFSGEEAKAAKRPRVGTPLATEDSGRSQDYVAFVESLLQVQGRPGAPF | failed
3 | MVKEPGGKHVLCVGAAVLDTLFRVADMPKGEGKVLPYEVLQIAEGMASSAAYAVHRMGGRASLWGAVGDDETGTRILRDLSESGIDTSGMTVAPGARSALSTIIIDNRGERLIVPFYDHRLHEKKRACTPEDIALFDAVLVDVRWPELALDVLTVARALGKPAILDGDVAPVETLEGLAPAATHIVFSEPAATRLTGLETVKDMLPVLHARYPQTFIAVTAGPAGCWWTEADDPTVHFQTTMQVEAVDTLAAGDIFHGTFALAMAEGMQSRAAVRLSSVAAALKCTVFGGRIGAPTREETEEAMRQWLERESEPALRAS | not failed
4 | MSGMRVYLGADHAGYELKQRIIEHLKQTGHEPIDCGALRYDADDDYPAFCIAAATRTVADPGSLGIVLGGSGNGEQIAANKVPGARCALAWSVQTAALAREHNNAQLIGIGGRMHTVAEALAIVDAFVTTPWSKAQRHQRRIDILAEYERTHEAPPVPGAPA | not failed
5 | MLISKKTLGVLIPDIFSFSNDQIAQKLEQMGIEVESIKQFNSPDYLQLAKVVSIQPHPHDNKLFICELQIDKNKFINVVSNANNINNPDNINKFVIVAKKGTELLNGLIVKTQNIKGIISEGILCSYIDINPFSRQIIEKTEVADAIIIDHVSNDHDWNQYLSFLSLDDVIFDVKTPTNRADLHSLIFLAKELGVLLKTKTFLKQKSSVVNHDFFKFPLNLKNKLKANYFGGLFLRQINQHSSPWTVKGLLINQMIKPVNYYVDKANLVTVFTAQPIHCHDADRIVGNIELKQATHNETFVGLDDKQYEIEPGDIVVCDEKGIIALVGIIGSKRTMVQPTTTNIFFEVVNCNSETIKQTAKRFLINNFASKFMVKPISLLATDNCLNYLQNSLLTTDNIGKISHFSSSLKVEPFSKKLTVNFHKIRQLIGIEKKELTDQTIKKSLSQLGFKVDNQLLKIPSYRQDINTWQDISEEIVKLIDINKLKPIGITSSFNFEKSSYFNTFNALTKLRKKLQTLGFHNVITYQLTDQKSAKTFNLFNLENFITIKNPVSQNHSVMRVSLIDSLLKVLKTNNNYKNELVNIFEFSFIKTQNNSELHLAVLWVEKLFTSSFNPMQGISNDVFTMKGLAKLIVANLGFSCDFEPLDDSDYFVNNQSLKIVVFNEQIGFIGLIKESLLNNYDLNNKPIYCLEINLDRMLSSLNRIEKNYLGYSKLQPVCKDLTFSFTNPASHFDQFANMIKRITGIESWKLISVFETMQNNQLITKYTVRYFLKNDANKPLTNQTIELITNNLKLQCEKLKIKLDI | failed
6 | MGHHHHHHSHMNSCILQATVVEAPQLRYTQDNQTPVAEMVVQFPGLSSKDAPARLKVVGWGAVAQELQDRCRLNDEVVLEGRLRINSLLKPDGNREKQTELTVTRVHH | not failed
7 | MTDRAPADKYVVWVVLALSSVGVVAVYSAVTYLAEVRAGTEPVHFLLRHLARVGIALGAMGVVSLIDYRTLARYSRLALVGTLLLLVAVKVVGLFSGGADRWLQIGGVGFQPSEFARVALVLYVAVLLVQKQDYVKSFSRTFLPVLFWVGVTVGLIALDDLSTALVLLLGVLLMSFVGRVSVLQIGGLAVLGGVMAFGVLSTSPDRAARLEAYLGMDLFPNTDTEQVMDARGEQYQSRQARMAFAAGGFTGVGPGKSVQRDFLPEPYNDFIFAIIAEEYGIFGALALLTGFFVLLFRGYLRIARDAPDPLGLILAVGMTTLVVTYGFVHAGVASGLLPVTGLPMPFVSYGGTSLLANGIMIGVLLNISRHAGQRSAERV | failed
8 | MSTDEERIYSIALTQIPGVGHIGAKRLVDGMGSATDVFRYRTELPDRLPGVNRAVVAALDSPQALKRAEQEYEFARNNRISCFTLADEDYPSRLRECDDAPVVLFFKGKANLNALHIINMVGTRNATDYGKHICVSFLQELQMLCPDVLVVSGLAYGIDINAHRSALSVELPTVGVLAHGLDRIYPSLHRKTAIDMLRQGGLLTEFLSGTNPDKHNFISRNRIVAGISDATIVVESAAKGGSLITADIAGSYHRDCFAFPGRVTDEYSKGCNQLIQDNKAVLLESASDFVKTMGWDSDLKSVKPETVQRNLFPDLSAEELRIVDILGKLGDLQINALMVQADIPINKISAILFELEMKGVIRVLAGGVYQLLR | failed
9 | LRVFSSDGKLIAEFGEMRRTPIRFAEIPPNFINALLSAEDDNFANHYGVDPSSLMRAATQLVKSGHIQSGGSTITMQVAKNFFLTSERSFSRKTTEILLALQIERQLTKDEILELYVNKIYLGNRAYGIEAAAQVYYGKSIRDVSLAQMAMIAGLPKAPSRFNPLANA | failed
10 | NDTELPTYRVVSRLSLDDLIETIDEDLDREIEFSEEILDQVDTVGGLIAFEKGRIPLPGTTVTTSGLQLQAEGGRDRRGRIQVRSVLVSVLPVESLSEL | failed
11 | MAYSLSPKKAGLPREVLKWLQSLDLSFFPKNVRRDFSNGYLVAEVFSWYFPRDFQMHSFDNGTSLAAKQSNWSQIEKFFVKQNISLVKEMIDGTIHCKPGAAELLVQEIYTILTNRSIQAIQRVEQGFTDKPYQDQLPMVARATASVSIKSNLSLTEVKAEPNIITNQRKVLAIIHRHLEQRKEERVQDPKRFNVKPTLGEQAVRLLAHQHEPNLQMNTSQAAC | failed
12 | MQHGARHRWGLTSGYRPGSGRRPGPSAVVAVAAFALVVASQGAAVARPAQAAAADREFASSFESGEPAPDWLSTVDTAADGSKRASGVDGGYSTGIPGNVTDHVTDVRAGAENTGAGEVKENLVDGESSTKWLTFTPTGWAEFDLDAPVKLVTYALTSANDADERDPADWTLQGSTDGKDWKTLDTRTGESFAERFQTKSYDLASPAEYQHFRLDITKNHGADLLQLADVQFSTGGTSDPAPKDMLSLVDRGPSGSPTAKAGAGFTGKRALRYAGTHKADARAYSYNKVFDVNVGVGRDTELSYRIFPSMADKDRDYDATNVSVDLVFTDGTYLSDLKATDQHGFALTPQGQGAAKILYVNQWNNVVSRIGSVAAGRTVDRILVAYDSPKGPAKFRGWLDDIALKAAPPEKPKAHLSDYALTTRGTNSSSGFSRGNNFPATAVPHGFNFWTPVTNAGSLSWLYDYARSNNADNLPTIQAFSASHEPSPWMGDRQTFQVMPSAASGTPDTGRTARALAFRHENETARPYYYGVTFENGLKAEMAPTDHAAALRFTYPGDDASVLFDNVTDQAGLTLDKEHGIVTGYSDVKSGLSTGATRLFVYGVFDAPVKEGASSGVKGYLRFAPGADHTVTLRLATSLISVDQAKDNLGQEIPDGTSFTTVKNRAQQQWDKLLGKVEVEGATPDQLTTLYSSMYRLYLYPNSGFEKIGSKYRYASPFQPMPSPDTPTHTGAKIVDGKVYVNNGFWDTYRTTWPAYSFLTPGQAGEMVDGFVQQYKDGGWTSRWSSPGYADLMTGTSSDVAFADAYVKGVDFDAKAAYDAAVKNATVVPPSSGVGRKGMATSPFLGYTSTDTSEGLSWAMEGYNNDYGIARMGQALYKKTGKKRYKEEAAYFLNRAQDYVKLFDGKAGFFQGRDGKGDWRVDSATYDPRVWGYDYTETNGWGYAFTAPQDSRGLANLYGGRGALAKKLDTYFATPETASPDFVGSYGGVIHEMTEARDVRMGMYGHSNQVAHHVNYMYDAAGRPWKTQANVREVLSRLYTGSEIGQGYHGDEDNGEQSAWYLFSALGFYPLVMGSGEYAIGSPLFTKATVHLENGRDLVVKAPKNSAKNVYVQGLKVNGKKWTSTSLPHSLIAKGGVLAFDMGAKPSSWGSGGGAGPVSITKGDQVPSPRADAIKGGGALFDDTSATSATVTSVELPVAARTKAVQYTLTSSSDHTAAPAGWVLEASADGTHWTTVDRRTDESFTWDRQTRVFSIAHPGKYAHYRLVPTAEATLAEVELLS | failed
13 | MEAGFVSVGDVTFRDLEDEAIVELVRKGNTDALEYLIHKYKNFVRAKSRSYFLVGADREDIVQEGMIGLFKAIRDYKEDKLSSFKAFAELCITRQIITAIKTATRQKHIPLNSYVSLDKPIYDEESDRTLLDVISEAKVTDPEEMIISQEEYTDIESKISELLSDLERKVLSLYLDGRSYQEISEQLNRHVKSIDNALQRVKRKLERYMEMRESTTLNS | failed
14 | MSEMSPKEFKHILVGVDDSDDAQLAFRYAINRAKSDGAKLTIVSILEQDNMNVYEAMSKDFVHGQRKDLEEHVQQYQKLARDFGVTDVNAVVDEGDPGETIVKTVIPALKPDLLVIGSVAKHGVRKYFGSQAAYMAKHAPISVLVIR | failed
15 | MQGVLLALVPMFAWGSIGFVANKFGGDAKQQTLGMTLGAFVFALIVFLFRMPTLTWQIFLIGFIGGLLWAIGQFGQFNSMKYMGVSVASPLSSGSQLVIGGLIGVFAFHEWTKQIQFILGFIAMAVLVVGFYFSAKRDPENAVVEEGRNYTKGLTALTYSTLGYVIYVILFNNLAVLWFNVHFDTLTIILPMSVGMIFGALVMGRFKIKMEKYVYQNMIVGAMWGVGNIFMLMAASAAGNAIAFSFSQLGVIVSTIGGILFLGEKKTKKELVYVGIGIVLFVTGAILLAIVKSKG | failed
16 | PDAARKAQILWCQPDRAKAWTDWMRKGKFPVGGSICDNPVAETTSLGEQFGFNGTPTLVFPNGRSQSGYSPMPQLEEIIRKNQ | not failed
